B1: Lsm10-MBP/Lsm11 heterodimer (wild-type, full-length Lsm11) (complex, human)
chain 1: MAVSHSVKERTISENSLIILLQGLQGRVTTVDLRDESVAHGRIDNVDAFMNIRLAKVTYTDRWGHQVKLDDLFVTGRNVRYVHIPDDVNITSTIEQQLQIIHRVRNFGGKGQGRWEFPPKNCK
chain 2: MEERERGARSAGAGSPARPPSPRLDVSSDSFDPLLALYAPRLPPIPYPNAPCFNNVAEYESFLRTGVRGGGRGRGRARGAAAGSGVPAAPGPSGRTRRRPDAPAPDPERIQRLRRLMVAKEEGDGAAGAGRRGPGRSRKAPRNVLTRMPLHEGSPLGELHRCIREGVKVNVHIRTFKGLRGVCTGFLVAFDKFWNMALTDVDETYRKPVLGKAYERDSSLTLTRLFDRLKLQDSSKKEADSKSAVEDSTLSRYSQTSTWKLASVWGRADTGRGSHKRSRSVPSSLQASAREESRSELSGRTTRTDGSSVGGTFSRATTLSRGQSRKKKRKPKVDYQQVFTRHINQIFIRGENVLLVHLAQ
notes: Lsm10, human, full length; Lsm11, human, full length, 360 amino acids; The results call the fusion Lsm10-MBP, the methods say MBP was added to the amino terminus of Lsm10; also called Lsm10/11; 10/11; source: baculovirus-expressed, recombinant; not shown: MBP, N-terminal, kept
B2: Lsm10/11ΔL heterodimer (MBP-Lsm10 with Lsm11 lacking the internal loop, amino acids 211-322) (complex, human)
chain 1: B1 chain 1
chain 2: MEERERGARSAGAGSPARPPSPRLDVSSDSFDPLLALYAPRLPPIPYPNAPCFNNVAEYESFLRTGVRGGGRGRGRARGAAAGSGVPAAPGPSGRTRRRPDAPAPDPERIQRLRRLMVAKEEGDGAAGAGRRGPGRSRKAPRNVLTRMPLHEGSPLGELHRCIREGVKVNVHIRTFKGLRGVCTGFLVAFDKFWNMALTDVDETYRKPVLQSRKKKRKPKVDYQQVFTRHINQIFIRGENVLLVHLAQ
notes: Lsm10, human, full length; Lsm11, human, lacking residues 211-322 (internal loop); Purified on nickel beads; also called Lsm10/11ΔL dimer; Lsm11ΔL; source: High5 insect cells (baculovirus), purified (nickel beads, HiTrap Heparin); not shown: MBP, N-terminal, kept
B3: recombinant mouse pICln (natural protein, UniProt Q61189 1-236, looked up)
chain: MSFLKSFPPPGSADGLRLQQPDTEAVLNGKGLGTGTLYIAESRLSWLDGSGLGFSLEYPTISLHAVSRDPNAYPQEHLYVMVNAKLGEESKEPPSDEDEEDNDDIEPISEFRFVPSDKSALEAMFTAMCECQALHPDPEDEDSDDYDGEEYDVEAHEQGQGDIPTFYTYEEGLSHLTAEGQATLERLEGMLSQSVSSQYNMAGVRTEDSVRNYEDGMEVETTPTVAGQFEDADVDH
notes: pICln, mouse, full length; source: E. coli Rosetta, purified (nickel beads, MonoQ)
B4: Lsm11 lacking residues 211-322 (chain of the Lsm10/11 heterodimer) (natural protein, human, UniProt P83369 1-360, looked up)
chain: B2 chain 2
notes: Lsm11, human, lacking residues 211-322 (internal loop); The Lsm11 chain of m2, written alone for the pairs Lsm11-PRMT5 and Lsm11-Lsm10; also called Lsm11ΔL; source: High5 insect cells (baculovirus), coexpressed with MBP-Lsm10, purified (nickel beads, HiTrap Heparin)

Columns and labels:
Conditions in all cases: both partners purified
[1] = target: T1, recombinant PRMT5/MEP50 complex (human, UniProt O14744 1-637; Q9BQA1 1-342); test: pull-down; recombinant PRMT5/MEP50 mixed with MBP-Lsm10/11 heterodimer (molar ratio 1:1) without pICln, collected on amylose beads via MBP on Lsm10; silver staining
T1 construct: PRMT5, human, full length; MEP50, human, full length; also called PRMT5/MEP50 heterooctamer; PRMT5/MEP50 heterodimer; source: High5 insect cells (baculovirus), coexpressed, purified (nickel beads, Superdex 200); copies: 4 + 4
T1 sequence (O14744 whole entry, chain 1 of 2): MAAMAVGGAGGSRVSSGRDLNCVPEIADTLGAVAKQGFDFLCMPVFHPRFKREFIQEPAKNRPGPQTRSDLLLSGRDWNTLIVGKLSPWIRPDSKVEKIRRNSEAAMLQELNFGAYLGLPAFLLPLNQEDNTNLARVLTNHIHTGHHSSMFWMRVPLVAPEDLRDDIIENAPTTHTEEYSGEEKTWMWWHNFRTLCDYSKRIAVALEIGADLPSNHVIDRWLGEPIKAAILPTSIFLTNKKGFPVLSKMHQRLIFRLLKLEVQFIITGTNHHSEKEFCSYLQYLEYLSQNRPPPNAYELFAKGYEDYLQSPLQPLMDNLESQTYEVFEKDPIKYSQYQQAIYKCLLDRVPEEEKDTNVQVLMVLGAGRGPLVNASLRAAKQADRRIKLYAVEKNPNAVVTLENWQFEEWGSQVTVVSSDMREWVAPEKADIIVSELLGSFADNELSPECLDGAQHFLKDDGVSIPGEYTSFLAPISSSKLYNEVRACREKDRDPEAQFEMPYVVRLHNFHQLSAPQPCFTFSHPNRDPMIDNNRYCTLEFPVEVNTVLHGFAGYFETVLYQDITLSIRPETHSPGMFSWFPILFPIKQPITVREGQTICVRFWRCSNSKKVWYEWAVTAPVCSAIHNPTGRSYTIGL
T1 sequence (Q9BQA1 whole entry, chain 2 of 2): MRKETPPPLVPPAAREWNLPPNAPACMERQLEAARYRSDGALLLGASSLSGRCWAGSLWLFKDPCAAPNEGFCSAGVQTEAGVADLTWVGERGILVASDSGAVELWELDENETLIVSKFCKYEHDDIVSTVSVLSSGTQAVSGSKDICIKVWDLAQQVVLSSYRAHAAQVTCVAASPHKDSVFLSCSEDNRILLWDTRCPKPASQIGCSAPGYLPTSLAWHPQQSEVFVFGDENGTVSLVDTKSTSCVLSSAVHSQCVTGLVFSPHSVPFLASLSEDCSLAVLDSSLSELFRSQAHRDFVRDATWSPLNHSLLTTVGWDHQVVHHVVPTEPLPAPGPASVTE

[2] = target: T1, recombinant PRMT5/MEP50 complex; test: cryo-EM structure; PRMT5/MEP50, Lsm10/11 and pICln mixed 1:1:1.2, complex purified on Superose 6 (25 mM Tris pH 7.5, 150 mM NaCl, 2 mM DTT); map at 2.86 Å, C1 symmetry
[3] = target: T2, recombinant human PRMT5 (chain of the PRMT5/MEP50 complex) (human, UniProt O14744 1-637); test: as above
T2 construct: PRMT5, human, full length; The PRMT5 chain of m17, written alone for the pairs seen in the cryo-EM structures; source: High5 insect cells (baculovirus), coexpressed with MEP50, purified (nickel beads, Superdex 200)
T2 sequence (O14744 whole entry, one chain of several): as the sequence (O14744 whole entry, chain 1 of 2) above

[4] = target: B1; test: pull-down; recombinant PRMT5/MEP50 mixed with MBP-Lsm10/11 heterodimer (molar ratio 1:1) in the presence of recombinant pICln, collected on amylose beads via MBP on Lsm10; silver staining

Binder	binding result [1]	binding result [2]	binding result [3]	binding result [4]
B1	binds	–	–	–
B2	–	binds	–	–
B3	–	binds	binds	binds
B4	–	–	binds	–

Reference: article PMC10578488 (RNA, 2023)
